Molecular target: T1, Chromogenic polypeptide Val-Arg-[pABA]-Gly
T1 chain: VRXG

B1: papain (protein)
chain: IPEYVDWRQKGAVTPVKNQGSCGSCWAFSAVVTIEGIIKIRTGNLNEYSEQELLDCDRRSYGCNGGYPWSALQLVAQYGIHYRNTYPYEGVQRYCRSREKGPYAAKTDGVRQVQPYNEGALLYSIANQPVSVVLEAAGKDFQLYRGGIFVGPCGNKVDHAVAAVGYGPNYILIKNSWGTGWGENGYIRIKRGTGNSYGVCGLYTSSFYPVKN
**Q.** For B1, which “colour change with DMAC after proteolysis (booklet assay)” value is on record?
**A.** after ten minutes DMAC changed from yellow to red
